Values quoted from earlier work, collected in patent publication US12678516B2, “Immunostimulatory toll-like receptor agonist-nanoparticle for cancer immunotherapy” (The Board of Trustees of the Leland Stanford Junior …, priority 2021, dated 2026).

Legend:
[1] = not given; remark: listed apart in the source

| Substance | toxicity with more frequent dosing (10 mg/kg monthly vs 15 mg/kg every 3 months, phase II) | sustained plasma levels in patients with the majority of responses (at one month) [µg/mL] | doses at which objective responses were evident (single antibody infusion, doses 0.01 to 15 mg/kg) [mg/kg] | grade Ill/IV enterocolitis, share of patients ([1]; 10 mg/kg) | hepatitis (irAE) ([1]; CTLA-4 blockade, patients) | hypophysitis (irAE) ([1]; CTLA-4 blockade, patients) [%] | leucopenia (irAE) ([1]; CTLA-4 blockade, patients) [%] | pancreatitis (irAE) ([1]; CTLA-4 blockade, patients) [%] | rash/pruritus (irAE) ([1]; CTLA-4 blockade, patients) [%] | uveitis (irAE) ([1]; CTLA-4 blockade, patients) [%] |
| --- | --- | --- | --- | --- | --- | --- | --- | --- | --- | --- |
| Tremelimumab: fully humanized CTLA4 antibody | doubled | > 30 | ≥ 3 | – | – | – | – | – | – | – |
| ipilimumab: fully humanized CTLA4 antibody | – | – | – | ~ 15% | 5-10% | 5 | < 2 | < 2 | > 50 | < 2 |
